Measurements from patent publication US20260055383.

Columns and labels:
Assay in all cases: cell_activity
[1] = test system: B2M right 12 bp TAL-ssSPB (synthetic construct); settings: paired with left 14 bp; replicate 7.46
[2] = test system: PBx (excision-only piggyBac transposase) (synthetic construct); settings: HEK293T, LINE1 integration 0
[3] = test system: B2M right 16 bp TAL-ssSPB (13 bp spacing) (synthetic construct); settings: paired with left 14 bp; replicate 7.18
[4] = test system: B2M left 13 bp TAL-ssSPB (synthetic construct); settings: paired with right 12 bp; replicate 8.38
[5] = test system: B2M right 17 bp TAL-ssSPB (13 bp spacing) (synthetic construct); settings: paired with left 14 bp; replicate 4.52
[6] = test system: B2M right 9 bp TAL-ssSPB (synthetic construct); settings: paired with left 10 bp; replicate 5.72
[7] = test system: B2M right 10 bp TAL-ssSPB (synthetic construct); settings: paired with left 9 bp; replicate 4.54
[8] = test system: B2M right 20 bp TAL-ssSPB (synthetic construct); settings: paired with left 14 bp; replicate 5.61
[9] = test system: B2M left 14 bp TAL-ssSPB (synthetic construct); settings: paired with right 11 bp; replicate 8.87
[10] = test system: B2M left 10 bp TAL-ssSPB (synthetic construct); settings: paired with right 12 bp; replicate 5.48
[11] = test system: B2M right 19 bp TAL-ssSPB (synthetic construct); settings: paired with left 14 bp; replicate 6.05
[12] = test system: B2M left 9 bp TAL-ssSPB (synthetic construct); settings: paired with right 10 bp; replicate 4.54
[13] = test system: B2M right 15 bp TAL-ssSPB (synthetic construct); settings: paired with left 14 bp; replicate 4.79
[14] = test system: B2M right 11 bp TAL-ssSPB (synthetic construct); settings: paired with left 14 bp; replicate 8.87
[15] = test system: B2M right 18 bp TAL-ssSPB (synthetic construct); settings: paired with left 14 bp; replicate 7.49
[16] = test system: B2M right 17 bp TAL-ssSPB (14 bp spacing) (synthetic construct); settings: paired with left 14 bp; replicate 5.14
[17] = test system: LINE1 R2.2 TAL-ssSPB K500R K500R (synthetic construct); settings: excision 33.92
[18] = test system: TAL-ssSPB off-target (not specific for LINE1) (synthetic construct); settings: off-target control; excision 34.56
[19] = test system: LINE1 R2.2 TAL-ssSPB S301A S301A (synthetic construct); settings: excision 39.72
[20] = test system: LINE1 R2.2 TAL-ssSPB M226F M226F (synthetic construct); settings: excision 45.14
[21] = test system: B2M right 16 bp TAL-ssSPB (14 bp spacing) (synthetic construct); settings: paired with left 14 bp; replicate 7.76

Sequence: TCTGAGCTTCTAA (double strand) [B2M right 12 bp target]
- activity (% B2M alleles edited) [1]: 6.8

Sequence: CCCTAGAAAGATAGTCTGCGTAAAATTGACGCATG (double strand) [Symmetrical ITR 0 bp]
- activity (% GFP positive cells) [2]: 91

Sequence: TGCATCTGAGCTTCTAA (double strand) [B2M right 16 bp target, 13 bp spacing]
- activity (% B2M alleles edited) [3]: 6

Sequence: TGAATCTGTGCTCT (double strand) [B2M left 13 bp target]
- activity (% B2M alleles edited) [4]: 6.55

Sequence: TTGCATCTGAGCTTCTAA (double strand) [B2M right 17 bp target, 13 bp spacing]
- activity (% B2M alleles edited) [5]: 5.66

Sequence: TGAGCTTCTA (double strand) [B2M right 9 bp target]
- activity (% B2M alleles edited) [6]: 5.73

Sequence: TGAGCTTCTAA (double strand) [B2M right 10 bp target]
- activity (% B2M alleles edited) [7]: 5.38

Sequence: CCCTAGAAAGATAGTCTGCGTAAAATTGACGCATG / CCCTAGAAAGATAATCATATTGTGACGTACGTTAAAGATAATCATGCGTAAAATTGACGCATG [WT transposon ITRs (35 bp LE / 63 bp RE)]
- activity (% GFP positive cells) [2]: 98.8

Sequence: TCTTTGCATCTGAGCTTCTAA (double strand) [B2M right 20 bp target]
- activity (% B2M alleles edited) [8]: 4.65

Sequence: TGAATCTGTGCTCTG (double strand) [B2M left 14 bp target]
- activity (% B2M alleles edited) [9]: 7.63

Sequence: TCTGTGCTCTG (double strand) [B2M left 10 bp target]
- activity (% B2M alleles edited) [10]: 6.02

Sequence: TCTTTGCATCTGAGCTTCTA (double strand) [B2M right 19 bp target]
- activity (% B2M alleles edited) [11]: 5.45

Sequence: TCTGTGCTCT (double strand) [B2M left 9 bp target]
- activity (% B2M alleles edited) [12]: 5.38

Sequence: TGCATCTGAGCTTCTA (double strand) [B2M right 15 bp target]
- activity (% B2M alleles edited) [13]: 6.25

Sequence: TCTGAGCTTCTA (double strand) [B2M right 11 bp target]
- activity (% B2M alleles edited) [14]: 7.63

Sequence: TTTGCATCTGAGCTTCTAA (double strand) [B2M right 18 bp target]
- activity (% B2M alleles edited) [15]: 5.76

Sequence: CCCTAGAAAGATAATCATGCGTAAAATTGACGCATG (double strand) [Symmetrical ITR 1bpSNP]
- activity (% GFP positive cells) [2]: 91.3

Sequence: TTTGCATCTGAGCTTCTA (double strand) [B2M right 17 bp target, 14 bp spacing]
- activity (% B2M alleles edited) [16]: 4.96

Sequence: TTGTCTCTTTT (double strand) [LINE1 R2.2 right target]
- activity (% mScarlet positive cells) [17]: 19.1
- activity (% mScarlet positive cells) [18]: 0.29
- activity (% mScarlet positive cells) [19]: 20.2
- activity (% mScarlet positive cells) [20]: 21.6

Sequence: TTGCATCTGAGCTTCTA (double strand) [B2M right 16 bp target, 14 bp spacing]
- activity (% B2M alleles edited) [21]: 6.39
